Measurements as given in US20260258125A1.

What was measured:
[1] = target: membrane-bound endogenous human CEACAM5 and CEACAM6 on LS 174T cells; assay: cell-based or functional assay
[2] = target: human CEACAM5 on 293T cells (293T-huCEACAM5 cells) (human) (UniProt P06731); assay: cell-based or functional assay
[3] = target: human CEACAM6 on 293T cells (293T-huCEACAM6 cells) (human) (UniProt P40199); assay: cell-based or functional assay
[4] = target: membrane-bound endogenous human CEACAM5 and CEACAM6 on BxPC3 cells; assay: cell-based or functional assay
[5] = target: antigen of the anti-CEACAM5/6 antibodies on HPAC cells; assay: cell-based or functional assay
[6] = target: membrane-bound endogenous human CEACAM5 and CEACAM6 on LS 174T cells; assay: cell-based or functional assay; parameters: unit not given beside the values
[7] = target: human CEACAM5 on 293T cells (293T-huCEACAM5 cells) (human) (UniProt P06731); assay: cell-based or functional assay; parameters: unit not given beside the values
[8] = target: human CEACAM6 on 293T cells (293T-huCEACAM6 cells) (human) (UniProt P40199); assay: cell-based or functional assay; parameters: unit not given beside the values
[9] = target: membrane-bound endogenous human CEACAM5 and CEACAM6 on BxPC3 cells; assay: cell-based or functional assay; parameters: unit not given beside the values
[10] = target: membrane-bound endogenous human CEACAM5 and CEACAM6 on LS 174T cells; assay: flow cytometry on LS 174T cells
[11] = target: membrane-bound endogenous human CEACAM5 and CEACAM6 on BxPC3 cells; assay: flow cytometry on BxPC3 cells

Sequence of human CEACAM6 on 293T cells (293T-huCEACAM6 cells) (human) (P40199 35-320): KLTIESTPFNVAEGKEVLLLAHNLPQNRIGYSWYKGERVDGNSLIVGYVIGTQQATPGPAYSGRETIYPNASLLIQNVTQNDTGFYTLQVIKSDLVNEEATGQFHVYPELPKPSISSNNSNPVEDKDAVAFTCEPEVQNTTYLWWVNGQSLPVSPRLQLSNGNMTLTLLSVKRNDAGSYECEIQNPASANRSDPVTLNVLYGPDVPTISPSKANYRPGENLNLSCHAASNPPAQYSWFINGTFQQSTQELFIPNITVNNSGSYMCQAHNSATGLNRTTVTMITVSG
Sequence of human CEACAM5 on 293T cells (293T-huCEACAM5 cells) (human) (P06731 35-685 limits assumed): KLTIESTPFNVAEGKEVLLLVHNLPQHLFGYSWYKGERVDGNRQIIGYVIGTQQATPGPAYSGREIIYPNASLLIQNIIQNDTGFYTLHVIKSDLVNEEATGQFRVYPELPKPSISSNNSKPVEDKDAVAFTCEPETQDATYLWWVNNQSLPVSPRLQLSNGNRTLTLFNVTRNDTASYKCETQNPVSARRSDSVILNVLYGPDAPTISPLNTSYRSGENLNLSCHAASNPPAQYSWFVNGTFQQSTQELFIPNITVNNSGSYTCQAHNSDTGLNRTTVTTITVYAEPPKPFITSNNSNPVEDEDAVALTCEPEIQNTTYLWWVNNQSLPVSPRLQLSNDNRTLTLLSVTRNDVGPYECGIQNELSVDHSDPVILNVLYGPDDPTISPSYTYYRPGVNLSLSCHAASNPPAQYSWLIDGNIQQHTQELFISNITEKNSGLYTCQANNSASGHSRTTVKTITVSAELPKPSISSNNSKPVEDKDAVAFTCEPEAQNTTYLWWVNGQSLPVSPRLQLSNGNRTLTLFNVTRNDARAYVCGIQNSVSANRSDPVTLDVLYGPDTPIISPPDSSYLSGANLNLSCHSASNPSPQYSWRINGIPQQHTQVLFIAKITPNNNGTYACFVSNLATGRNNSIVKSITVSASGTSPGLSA

Row | Substance | Internalization of pHAb-dye-labelled antibody, MFI (37° C.-4° C.)/DAR [1] | Internalization of pHAb-dye-labelled antibody, MFI (37° C.-4° C.)/DAR [2] | Internalization of pHAb-dye-labelled antibody, MFI (37° C.-4° C.)/DAR [3] | Internalization of pHAb-dye-labelled antibody, MFI (37° C.-4° C.)/DAR [4] | Internalization of pHAb-dye-labelled antibody, MFI (37° C.-4° C.)/DAR [5] | IC50 of in vitro cytotoxicity of the ADC (CellTiter-Glo, 6 days) [6] | IC50 of in vitro cytotoxicity of the ADC (CellTiter-Glo, 6 days) [7] | IC50 of in vitro cytotoxicity of the ADC (CellTiter-Glo, 6 days) [8] | IC50 of in vitro cytotoxicity of the ADC (CellTiter-Glo, 6 days) [9] | EC50 [10] | EC50 [11]
1 | non-relevant IgG isotype control (Crownbio, hIgG1) (antibody) | 468 | 888 | 975 | 0 | 3010 |  |  |  |  |  | 
2 | IgG-MMAE |  |  |  |  |  | 700 | 66 | 72 | 100 |  | 
3 | PR303561 (Tusamitamab) (antibody) | 1320 |  |  | 8230 |  |  |  |  |  | 1.74 nM | 3.06 nM
